In IntAct's records for PubMed 20562859:

How the values were obtained:
atg10_human ATG10 = atg10_human ATG10 (UniProt Q9H0Y0)
atg2a_human ATG2A = atg2a_human ATG2A (UniProt Q2TAZ0)
atg3_human ATG3 = atg3_human ATG3 (UniProt Q9NT62)
nips2_human NIPSNAP2 = biological target: T1, nips2_human NIPSNAP2 (UniProt O75323)
T1 sequence: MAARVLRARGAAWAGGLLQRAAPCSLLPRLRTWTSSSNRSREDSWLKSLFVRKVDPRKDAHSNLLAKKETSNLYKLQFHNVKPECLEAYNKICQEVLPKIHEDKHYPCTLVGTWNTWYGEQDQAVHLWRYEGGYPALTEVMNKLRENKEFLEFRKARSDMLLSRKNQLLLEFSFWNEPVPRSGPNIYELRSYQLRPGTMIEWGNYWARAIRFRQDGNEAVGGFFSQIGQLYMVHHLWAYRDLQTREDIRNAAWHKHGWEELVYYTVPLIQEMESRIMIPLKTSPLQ

tcpr2_human TECPR2 = biological target: T2, tcpr2_human TECPR2 (UniProt O15040)
T2 sequence: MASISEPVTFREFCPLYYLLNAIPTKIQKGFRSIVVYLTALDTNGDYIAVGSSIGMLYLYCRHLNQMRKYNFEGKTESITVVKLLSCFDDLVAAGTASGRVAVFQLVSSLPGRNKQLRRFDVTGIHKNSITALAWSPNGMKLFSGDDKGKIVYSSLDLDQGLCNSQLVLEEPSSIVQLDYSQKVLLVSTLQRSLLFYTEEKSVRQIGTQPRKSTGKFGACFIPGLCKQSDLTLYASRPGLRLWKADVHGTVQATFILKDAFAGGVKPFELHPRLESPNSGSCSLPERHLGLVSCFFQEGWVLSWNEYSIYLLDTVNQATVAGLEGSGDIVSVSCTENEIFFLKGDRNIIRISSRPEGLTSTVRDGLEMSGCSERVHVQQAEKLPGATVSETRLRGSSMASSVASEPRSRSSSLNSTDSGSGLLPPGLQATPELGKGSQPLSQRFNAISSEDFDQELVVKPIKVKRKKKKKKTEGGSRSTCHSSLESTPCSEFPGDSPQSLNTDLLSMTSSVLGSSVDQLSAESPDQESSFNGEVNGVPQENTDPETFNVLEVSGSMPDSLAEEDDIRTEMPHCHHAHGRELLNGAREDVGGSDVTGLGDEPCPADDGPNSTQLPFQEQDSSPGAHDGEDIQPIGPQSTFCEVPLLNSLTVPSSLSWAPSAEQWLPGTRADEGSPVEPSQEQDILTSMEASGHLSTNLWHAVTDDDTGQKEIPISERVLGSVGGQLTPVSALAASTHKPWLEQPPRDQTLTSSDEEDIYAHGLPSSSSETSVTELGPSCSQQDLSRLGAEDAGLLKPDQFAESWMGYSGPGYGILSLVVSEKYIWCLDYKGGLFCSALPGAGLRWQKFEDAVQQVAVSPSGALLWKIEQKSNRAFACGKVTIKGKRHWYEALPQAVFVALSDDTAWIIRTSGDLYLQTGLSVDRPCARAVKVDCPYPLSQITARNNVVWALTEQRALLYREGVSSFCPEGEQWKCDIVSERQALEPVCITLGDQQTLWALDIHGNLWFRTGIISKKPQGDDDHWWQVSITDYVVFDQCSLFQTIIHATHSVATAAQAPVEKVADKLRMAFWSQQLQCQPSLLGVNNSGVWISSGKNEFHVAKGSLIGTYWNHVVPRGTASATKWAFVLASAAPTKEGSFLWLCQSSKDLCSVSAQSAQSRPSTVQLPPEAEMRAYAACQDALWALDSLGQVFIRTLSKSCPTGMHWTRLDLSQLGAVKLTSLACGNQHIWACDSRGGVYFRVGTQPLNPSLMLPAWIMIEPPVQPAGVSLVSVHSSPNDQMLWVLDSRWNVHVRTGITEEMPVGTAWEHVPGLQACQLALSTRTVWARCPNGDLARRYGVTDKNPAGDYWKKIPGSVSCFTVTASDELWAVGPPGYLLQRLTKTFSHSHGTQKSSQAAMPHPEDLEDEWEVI

nedd4_human NEDD4 = nedd4_human NEDD4 (UniProt P46934)
nedd4_human NEDD4, sequence (P46934 whole entry): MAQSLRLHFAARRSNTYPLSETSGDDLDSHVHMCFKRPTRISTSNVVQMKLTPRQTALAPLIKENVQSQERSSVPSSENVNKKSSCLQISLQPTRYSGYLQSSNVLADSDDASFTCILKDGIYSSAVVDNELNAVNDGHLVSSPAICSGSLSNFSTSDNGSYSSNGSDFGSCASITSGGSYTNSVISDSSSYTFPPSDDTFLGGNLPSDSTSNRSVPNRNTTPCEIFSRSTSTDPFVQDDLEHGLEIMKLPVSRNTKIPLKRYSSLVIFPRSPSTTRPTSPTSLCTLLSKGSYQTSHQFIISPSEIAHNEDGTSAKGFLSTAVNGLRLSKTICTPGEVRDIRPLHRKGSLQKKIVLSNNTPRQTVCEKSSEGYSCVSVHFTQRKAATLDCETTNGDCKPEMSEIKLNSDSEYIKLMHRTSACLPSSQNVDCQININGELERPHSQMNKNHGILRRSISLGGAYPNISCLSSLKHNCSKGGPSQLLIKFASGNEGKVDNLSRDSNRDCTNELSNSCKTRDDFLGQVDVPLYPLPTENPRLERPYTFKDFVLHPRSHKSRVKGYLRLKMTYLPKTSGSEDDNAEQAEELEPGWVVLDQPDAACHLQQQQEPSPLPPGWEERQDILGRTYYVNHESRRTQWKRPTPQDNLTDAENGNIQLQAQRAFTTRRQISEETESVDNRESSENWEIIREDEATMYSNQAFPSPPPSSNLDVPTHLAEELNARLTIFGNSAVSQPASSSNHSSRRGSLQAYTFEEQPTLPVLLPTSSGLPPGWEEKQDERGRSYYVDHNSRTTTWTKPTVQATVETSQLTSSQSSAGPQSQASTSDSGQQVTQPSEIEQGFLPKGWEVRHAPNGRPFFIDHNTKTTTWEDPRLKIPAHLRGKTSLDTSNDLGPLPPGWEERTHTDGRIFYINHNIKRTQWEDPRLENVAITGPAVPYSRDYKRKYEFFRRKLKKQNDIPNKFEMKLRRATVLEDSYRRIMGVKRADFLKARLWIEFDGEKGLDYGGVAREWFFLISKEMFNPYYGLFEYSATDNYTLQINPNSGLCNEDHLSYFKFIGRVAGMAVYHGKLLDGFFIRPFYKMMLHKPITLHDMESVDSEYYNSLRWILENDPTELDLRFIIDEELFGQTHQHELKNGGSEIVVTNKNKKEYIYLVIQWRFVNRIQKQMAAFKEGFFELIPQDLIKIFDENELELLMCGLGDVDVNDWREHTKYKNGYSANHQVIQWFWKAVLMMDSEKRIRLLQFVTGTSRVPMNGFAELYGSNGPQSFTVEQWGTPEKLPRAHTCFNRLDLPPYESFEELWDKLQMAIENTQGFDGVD

rasf3_human RASSF3 = biological target: T3, rasf3_human RASSF3 (UniProt Q86WH2)
T3 sequence: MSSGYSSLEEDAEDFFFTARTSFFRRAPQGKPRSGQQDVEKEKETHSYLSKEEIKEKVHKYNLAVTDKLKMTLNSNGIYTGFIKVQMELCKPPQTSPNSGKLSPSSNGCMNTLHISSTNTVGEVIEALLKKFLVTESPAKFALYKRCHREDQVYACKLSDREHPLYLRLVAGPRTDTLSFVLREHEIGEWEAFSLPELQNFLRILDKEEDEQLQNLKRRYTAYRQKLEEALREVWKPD

stk3_human STK3 = biological target: T4, stk3_human STK3 (UniProt Q13188)
T4 sequence: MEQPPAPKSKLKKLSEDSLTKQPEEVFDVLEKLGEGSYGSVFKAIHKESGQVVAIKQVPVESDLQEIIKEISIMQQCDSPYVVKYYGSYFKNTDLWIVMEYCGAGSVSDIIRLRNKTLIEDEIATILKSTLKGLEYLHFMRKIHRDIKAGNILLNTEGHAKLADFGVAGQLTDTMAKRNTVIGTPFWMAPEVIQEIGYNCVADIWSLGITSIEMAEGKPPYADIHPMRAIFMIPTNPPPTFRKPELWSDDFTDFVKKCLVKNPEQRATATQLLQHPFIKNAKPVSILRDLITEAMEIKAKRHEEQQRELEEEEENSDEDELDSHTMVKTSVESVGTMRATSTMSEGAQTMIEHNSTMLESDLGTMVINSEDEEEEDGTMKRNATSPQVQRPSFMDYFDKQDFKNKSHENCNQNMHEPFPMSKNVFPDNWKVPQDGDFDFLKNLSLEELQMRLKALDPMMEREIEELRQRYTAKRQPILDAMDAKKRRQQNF

atg2a_human ATG2A, sequence (Q2TAZ0 whole entry): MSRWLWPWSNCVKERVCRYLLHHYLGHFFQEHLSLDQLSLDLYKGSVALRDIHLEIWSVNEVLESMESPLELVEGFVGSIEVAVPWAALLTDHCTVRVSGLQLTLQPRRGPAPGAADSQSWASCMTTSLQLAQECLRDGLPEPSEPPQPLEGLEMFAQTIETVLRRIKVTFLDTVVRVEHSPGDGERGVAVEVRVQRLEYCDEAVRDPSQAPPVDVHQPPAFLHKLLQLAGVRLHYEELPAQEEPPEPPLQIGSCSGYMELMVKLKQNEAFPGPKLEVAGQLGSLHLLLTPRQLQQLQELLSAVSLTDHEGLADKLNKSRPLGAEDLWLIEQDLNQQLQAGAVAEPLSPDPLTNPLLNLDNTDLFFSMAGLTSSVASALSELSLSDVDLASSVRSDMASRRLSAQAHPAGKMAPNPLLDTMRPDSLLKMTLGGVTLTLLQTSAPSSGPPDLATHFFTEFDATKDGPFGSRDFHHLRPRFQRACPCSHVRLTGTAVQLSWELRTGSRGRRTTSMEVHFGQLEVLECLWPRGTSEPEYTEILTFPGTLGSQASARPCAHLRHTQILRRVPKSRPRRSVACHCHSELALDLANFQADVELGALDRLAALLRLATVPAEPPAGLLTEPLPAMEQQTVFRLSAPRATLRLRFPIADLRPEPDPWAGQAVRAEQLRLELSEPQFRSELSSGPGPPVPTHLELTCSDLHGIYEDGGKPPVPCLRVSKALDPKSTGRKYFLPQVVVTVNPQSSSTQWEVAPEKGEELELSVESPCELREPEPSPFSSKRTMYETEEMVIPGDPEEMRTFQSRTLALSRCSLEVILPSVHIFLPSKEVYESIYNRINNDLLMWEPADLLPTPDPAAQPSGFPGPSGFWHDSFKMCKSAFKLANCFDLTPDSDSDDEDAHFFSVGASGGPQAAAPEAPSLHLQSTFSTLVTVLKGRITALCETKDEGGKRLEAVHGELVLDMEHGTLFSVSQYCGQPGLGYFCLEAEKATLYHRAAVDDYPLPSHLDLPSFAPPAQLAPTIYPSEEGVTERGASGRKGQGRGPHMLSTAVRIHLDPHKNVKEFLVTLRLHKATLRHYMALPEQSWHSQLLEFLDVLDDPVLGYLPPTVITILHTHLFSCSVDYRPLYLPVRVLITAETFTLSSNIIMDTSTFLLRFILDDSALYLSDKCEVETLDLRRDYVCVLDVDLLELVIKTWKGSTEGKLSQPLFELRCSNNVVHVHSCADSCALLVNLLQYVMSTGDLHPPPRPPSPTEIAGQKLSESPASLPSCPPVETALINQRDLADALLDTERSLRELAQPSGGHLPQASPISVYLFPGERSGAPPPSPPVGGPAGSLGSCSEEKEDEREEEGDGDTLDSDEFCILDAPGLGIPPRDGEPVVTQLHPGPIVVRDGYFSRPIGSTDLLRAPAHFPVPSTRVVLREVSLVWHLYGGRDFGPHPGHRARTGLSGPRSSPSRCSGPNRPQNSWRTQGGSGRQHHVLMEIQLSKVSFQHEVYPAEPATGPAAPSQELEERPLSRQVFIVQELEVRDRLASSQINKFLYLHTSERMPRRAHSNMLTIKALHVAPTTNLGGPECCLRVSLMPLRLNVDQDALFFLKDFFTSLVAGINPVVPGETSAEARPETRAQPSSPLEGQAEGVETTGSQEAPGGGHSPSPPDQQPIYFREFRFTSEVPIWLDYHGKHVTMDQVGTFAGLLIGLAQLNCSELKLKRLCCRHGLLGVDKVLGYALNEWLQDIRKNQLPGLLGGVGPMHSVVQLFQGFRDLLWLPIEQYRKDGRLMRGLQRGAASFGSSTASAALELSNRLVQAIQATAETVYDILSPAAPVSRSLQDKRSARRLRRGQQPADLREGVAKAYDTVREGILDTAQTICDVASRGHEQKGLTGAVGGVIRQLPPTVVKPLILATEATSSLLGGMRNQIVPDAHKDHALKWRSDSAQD
atg10_human ATG10, sequence (Q9H0Y0 whole entry): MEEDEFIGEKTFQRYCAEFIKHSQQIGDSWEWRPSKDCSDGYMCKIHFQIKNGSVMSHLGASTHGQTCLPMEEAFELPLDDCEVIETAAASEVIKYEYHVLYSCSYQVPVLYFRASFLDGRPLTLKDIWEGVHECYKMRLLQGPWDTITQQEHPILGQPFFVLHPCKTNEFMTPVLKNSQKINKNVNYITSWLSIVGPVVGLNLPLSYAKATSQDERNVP
atg3_human ATG3, sequence (Q9NT62 whole entry): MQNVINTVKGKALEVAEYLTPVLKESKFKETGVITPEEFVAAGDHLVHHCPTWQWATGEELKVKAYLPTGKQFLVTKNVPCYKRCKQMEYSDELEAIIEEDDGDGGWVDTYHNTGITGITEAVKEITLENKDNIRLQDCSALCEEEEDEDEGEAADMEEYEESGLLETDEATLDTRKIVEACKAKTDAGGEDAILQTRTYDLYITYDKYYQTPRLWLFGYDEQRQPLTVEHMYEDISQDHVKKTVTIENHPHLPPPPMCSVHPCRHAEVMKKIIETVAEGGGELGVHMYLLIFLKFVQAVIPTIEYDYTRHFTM

What does the source list for “Microtubule-associated protein 1 light chain 3 beta (Homo sapiens) (from UniProt Q9GZQ8) R69A”?
effect of a mutation on the interaction (atg10_human ATG10): decreasing interaction; effect of a mutation on the interaction (atg2a_human ATG2A): decreasing interaction; effect of a mutation on the interaction (atg3_human ATG3): disrupting interaction; effect of a mutation on the interaction (nips2_human NIPSNAP2): decreasing interaction; effect of a mutation on the interaction (tcpr2_human TECPR2): disrupting interaction; effect of a mutation on the interaction (nedd4_human NEDD4): decreasing interaction; effect of a mutation on the interaction (rasf3_human RASSF3): decreasing interaction; effect of a mutation on the interaction (stk3_human STK3): decreasing interaction

What does the source list for “Microtubule-associated protein 1 light chain 3 beta (Homo sapiens) (from UniProt Q9GZQ8) F52A;L53A”?
effect of a mutation on the interaction (atg10_human ATG10): increasing interaction; effect of a mutation on the interaction (atg2a_human ATG2A): increasing interaction; effect of a mutation on the interaction (atg3_human ATG3): disrupting interaction; effect of a mutation on the interaction (nips2_human NIPSNAP2): increasing interaction; effect of a mutation on the interaction (tcpr2_human TECPR2): decreasing interaction; effect of a mutation on the interaction (nedd4_human NEDD4): decreasing interaction; effect of a mutation on the interaction (rasf3_human RASSF3): increasing interaction; effect of a mutation on the interaction (stk3_human STK3): increasing interaction
